Data from patent US20210079115A1 (Janssen / Centocor, published 2021).

Target: full length human PSMA on cells (LNCaP, C4-2B, LNCaP AR, 22RV1 prostate tumor cells; human tissue) (human, UniProt Q04609 1-750)
Test: cell-based or functional assay

Chain of full length human PSMA on cells (LNCaP, C4-2B, LNCaP AR, 22RV1 prostate tumor cells; human tissue) (Q04609 whole entry): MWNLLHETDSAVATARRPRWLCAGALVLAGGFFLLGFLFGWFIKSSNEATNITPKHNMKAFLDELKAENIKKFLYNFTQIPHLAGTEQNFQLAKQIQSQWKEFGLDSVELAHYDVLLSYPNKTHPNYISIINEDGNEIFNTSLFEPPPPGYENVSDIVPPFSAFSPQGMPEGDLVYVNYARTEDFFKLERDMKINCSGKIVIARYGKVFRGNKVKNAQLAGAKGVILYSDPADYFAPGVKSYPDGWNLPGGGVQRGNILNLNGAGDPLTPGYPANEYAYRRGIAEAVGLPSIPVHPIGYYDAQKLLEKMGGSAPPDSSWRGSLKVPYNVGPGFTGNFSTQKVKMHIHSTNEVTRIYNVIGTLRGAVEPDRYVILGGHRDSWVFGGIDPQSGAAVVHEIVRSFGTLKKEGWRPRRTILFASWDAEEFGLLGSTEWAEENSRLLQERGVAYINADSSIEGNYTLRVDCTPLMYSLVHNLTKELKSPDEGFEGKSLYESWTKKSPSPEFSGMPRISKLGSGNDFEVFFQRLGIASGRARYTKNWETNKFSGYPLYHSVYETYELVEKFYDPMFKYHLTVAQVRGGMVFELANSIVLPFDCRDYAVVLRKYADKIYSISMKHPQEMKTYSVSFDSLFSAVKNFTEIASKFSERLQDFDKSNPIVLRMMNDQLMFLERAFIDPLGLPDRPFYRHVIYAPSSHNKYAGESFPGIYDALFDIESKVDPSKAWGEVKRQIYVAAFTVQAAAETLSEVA

B1: PS3B27 PSMA×CD3 bispecific antibody (PSMB127 × CD3B219) (bispecific antibody, human IgG4 S228P, kappa, lambda, F234A L235A)
heavy 1: not shown
light 1: not shown
heavy 2: EVQLVESGGGLVQPGGSLRLSCAASGFTFNTYAMNWVRQAPGKGLEWVARIRSKYNNYATYYAASVKGRFTISRDDSKNSLYLQMNSLKTEDTAVYYCARHGNFGNSYVSWFAYWGQGTLVTVSSASTKGPSVFPLAPCSRSTSESTAALGCLVKDYFPEPVTVSWNSGALTSGVHTFPAVLQSSGLYSLSSVVTVPSSSLGTKTYTCNVDHKPSNTKVDKRVESKYGPPCPPCPAPEAAGGPSVFLFPPKPKDTLMISRTPEVTCVVVDVSQEDPEVQFNWYVDGVEVHNAKTKPREEQFNSTYRVVSVLTVLHQDWLNGKEYKCKVSNKGLPSSIEKTISKAKGQPREPQVYTLPPSQEEMTKNQVSLTCLVKGFYPSDIAVEWESNGQPENNYKTTPPVLDSDGSFLLYSKLTVDKSRWQEGNVFSCSVMHEALHNHYTQKSLSLSLGK
light 2: QTVVTQEPSLTVSPGGTVTLTCRSSTGAVTTSNYANWVQQKPGQAPRGLIGGTNKRAPGTPARFSGSLLGGKAALTLSGVQPEDEAEYYCALWYSNLWVFGGGTKLTVLGQPKAAPSVTLFPPSSEELQANKATLVCLISDFYPGAVTVAWKADSSPVKAGVETTTPSKQSNNKYAASSYLSLTPEQWKSHRSYSCQVTHEGSTVEKTVAPTECS
- T cell activation (CD25 expression) median EC50, C4-2B cells co-cultured with donor T cells, 48 hours: 0.06 nM
- T cell dependent cytotoxicity median EC50, C4-2B cells, E:T 3:1, 72 hours: 0.08 nM
